Measurements: patent US20230322953A1 (HARBOUR BIOMED SHANGHAI, published 2023)
Where “and” joins values, the source holds several entries; their conditions need not be identical. Equal entries are not always repeated.

B1: PR002309 (bispecific antibody, human IgG1, lambda, L234A L235A)
light: QAVVTQEPSLTVSPGGTVTLTCRSSTGAVTTSNYANWVQQKPGQAPRGLIGGTNKRAPWTPARFSGSLLGDKAALTLLGAQPEDEAEYFCALWYSNLWVFGGGTKLTVLGQPKAAPSVTLFPPSSEELQANKATLVCLISDFYPGAVTVAWKADSSPVKAGVETTTPSKQSNNKYAASSYLSLTPEQWKSHRSYSCQVTHEGSTVEKTVAPTECS
heavy: EVQLLESGGGLVQPGGSLRLSCAASGFTFSTYAMNWVRQAPGKGLEWVSRIRSKYNNYATYYADSVKDRFTISRDDSKSTLYLQMNSLRAEDTAVYYCVRHGNFGNSYVSWFAYWGQGTLVTVSSASTKGPSVFPLAPSSKSTSGGTAALGCLVKDYFPEPVTVSWNSGALTSGVHTFPAVLQSSGLYSLSSVVTVPSSSLGTQTYICNVNHKPSNTKVDKKVEPKSCDKTHTCPPCPAPEAAGGPSVFLFPPKPKDTLMISRTPEVTCVVVDVSHEDPEVKFNWYVDGVEVHNAKTKPREEQYNSTYRVVSVLTVLHQDWLNGKEYKCKVSNKALGAPIEKTISKAKGQPREPQVYTLPPCREEMTKNQVSLWCLVKGFYPSDIAVEWESNGQPENNYKTTPPVLDSDGSFFLYSKLTVDKSRWQQGNVFSCSVMHEALHNHYTQKSLSLSPGK
chain: EVQLVETGGGLIQPGGSLRLSCAASGFTVSDNYMTWVRQAPGKGLEWVSVIFSGGNTYYADSVKGRFTISRDNAKNTLYLQMNSLRAEDTALYYCARRNYDDTRGTDVFDIWGQGTMVTVSSRTGGGGSGGGGSGGGGSKLEVQLVETGGGLIQPGGSLRLSCAASGFTVSDNYMTWVRQAPGKGLEWVSVIFSGGNTYYADSVKGRFTISRDNAKNTLYLQMNSLRAEDTALYYCARRNYDDTRGTDVFDIWGQGTMVTVSSASEPKSSDKTHTCPPCPAPEAAGGPSVFLFPPKPKDTLMISRTPEVTCVVVDVSHEDPEVKFNWYVDGVEVHNAKTKPREEQYNSTYRVVSVLTVLHQDWLNGKEYKCKVSNKALGAPIEKTISKAKGQPREPQVCTLPPSREEMTKNQVSLSCAVKGFYPSDIAVEWESNGQPENNYKTTPPVLDSDGSFFLVSKLTVDKSRWQQGNVFSCSVMHEALHNHYTQKSLSLSPGK
B2: PR002901 (bispecific antibody, human IgG1, lambda, L234A L235A)
light: B1 light
heavy: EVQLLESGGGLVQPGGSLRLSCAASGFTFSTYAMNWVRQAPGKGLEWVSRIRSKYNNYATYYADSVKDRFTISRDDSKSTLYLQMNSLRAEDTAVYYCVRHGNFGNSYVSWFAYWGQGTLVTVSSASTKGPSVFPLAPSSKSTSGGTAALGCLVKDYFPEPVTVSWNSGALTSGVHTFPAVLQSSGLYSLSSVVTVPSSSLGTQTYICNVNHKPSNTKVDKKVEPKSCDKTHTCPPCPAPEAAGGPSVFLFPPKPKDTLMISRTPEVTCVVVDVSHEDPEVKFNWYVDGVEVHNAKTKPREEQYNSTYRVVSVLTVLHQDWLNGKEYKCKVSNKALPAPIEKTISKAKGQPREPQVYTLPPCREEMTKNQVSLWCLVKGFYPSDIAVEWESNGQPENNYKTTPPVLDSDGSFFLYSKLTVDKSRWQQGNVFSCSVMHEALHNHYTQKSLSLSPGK
chain: EVQLVETGGGLIQPGGSLRLSCAASGFTVSDNYMTWVRQAPGKGLEWVSVIFSGGNTYYADSVKGRFTISRDNAKNTLYLQMNSLRAEDTALYYCARRNYDDTRGTDVFDIWGQGTMVTVSSGSGSEVQLVETGGGLIQPGGSLRLSCAASGFTVSDNYMTWVRQAPGKGLEWVSVIFSGGNTYYADSVKGRFTISRDNAKNTLYLQMNSLRAEDTALYYCARRNYDDTRGTDVFDIWGQGTMVTVSSASEPKSSDKTHTCPPCPAPEAAGGPSVFLFPPKPKDTLMISRTPEVTCVVVDVSHEDPEVKFNWYVDGVEVHNAKTKPREEQYNSTYRVVSVLTVLHQDWLNGKEYKCKVSNKALPAPIEKTISKAKGQPREPQVCTLPPSREEMTKNQVSLSCAVKGFYPSDIAVEWESNGQPENNYKTTPPVLDSDGSFFLVSKLTVDKSRWQQGNVFSCSVMHEALHNHYTQKSLSLSPGK
B3: PR002895 (bispecific antibody, human IgG1, lambda, L234A L235A)
light: B1 light
heavy: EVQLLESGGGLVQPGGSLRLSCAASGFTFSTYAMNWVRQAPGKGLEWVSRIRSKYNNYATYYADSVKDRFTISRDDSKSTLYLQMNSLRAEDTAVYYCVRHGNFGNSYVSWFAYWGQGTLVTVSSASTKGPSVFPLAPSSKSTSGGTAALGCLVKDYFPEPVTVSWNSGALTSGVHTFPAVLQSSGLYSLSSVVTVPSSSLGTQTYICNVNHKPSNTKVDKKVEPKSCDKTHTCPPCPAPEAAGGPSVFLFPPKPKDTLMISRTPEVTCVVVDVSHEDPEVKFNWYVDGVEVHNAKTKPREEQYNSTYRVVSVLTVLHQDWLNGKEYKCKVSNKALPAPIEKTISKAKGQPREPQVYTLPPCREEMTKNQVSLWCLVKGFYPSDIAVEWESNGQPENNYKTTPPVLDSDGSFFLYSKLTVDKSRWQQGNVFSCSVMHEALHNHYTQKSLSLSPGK
chain: EVQLVETGGGLIQPGGSLRLSCAASGFTVSDNYMTWVRQAPGKGLEWVSVIFSGGNTYYADSVKGRFTISRDNAKNTLYLQMNSLRAEDTALYYCARRNYDDTRGTDVFDIWGQGTMVTVSSGGGGSGGGGSGGGGSEVQLVETGGGLIQPGGSLRLSCAASGFTVSDNYMTWVRQAPGKGLEWVSVIFSGGNTYYADSVKGRFTISRDNAKNTLYLQMNSLRAEDTALYYCARRNYDDTRGTDVFDIWGQGTMVTVSSASEPKSSDKTHTCPPCPAPEAAGGPSVFLFPPKPKDTLMISRTPEVTCVVVDVSHEDPEVKFNWYVDGVEVHNAKTKPREEQYNSTYRVVSVLTVLHQDWLNGKEYKCKVSNKALPAPIEKTISKAKGQPREPQVCTLPPSREEMTKNQVSLSCAVKGFYPSDIAVEWESNGQPENNYKTTPPVLDSDGSFFLVSKLTVDKSRWQQGNVFSCSVMHEALHNHYTQKSLSLSPGK
B4: PR002959 (bispecific antibody, human IgG1, lambda, L234A L235A)
light: B1 light
heavy: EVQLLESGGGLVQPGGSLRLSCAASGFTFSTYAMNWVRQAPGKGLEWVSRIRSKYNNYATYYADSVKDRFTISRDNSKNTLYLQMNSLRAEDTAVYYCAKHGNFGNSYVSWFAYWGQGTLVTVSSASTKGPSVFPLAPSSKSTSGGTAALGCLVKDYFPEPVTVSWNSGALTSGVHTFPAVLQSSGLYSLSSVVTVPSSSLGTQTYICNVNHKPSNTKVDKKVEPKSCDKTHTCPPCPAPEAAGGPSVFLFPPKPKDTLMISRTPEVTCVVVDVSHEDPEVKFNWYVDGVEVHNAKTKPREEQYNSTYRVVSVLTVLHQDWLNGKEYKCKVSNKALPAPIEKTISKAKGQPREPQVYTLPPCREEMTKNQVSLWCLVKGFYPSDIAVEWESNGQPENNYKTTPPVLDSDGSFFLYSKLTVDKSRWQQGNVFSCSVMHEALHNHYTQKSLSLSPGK
chain: B2 chain
B5: PR002953 (bispecific antibody, human IgG1, lambda, L234A L235A)
light: B1 light
heavy: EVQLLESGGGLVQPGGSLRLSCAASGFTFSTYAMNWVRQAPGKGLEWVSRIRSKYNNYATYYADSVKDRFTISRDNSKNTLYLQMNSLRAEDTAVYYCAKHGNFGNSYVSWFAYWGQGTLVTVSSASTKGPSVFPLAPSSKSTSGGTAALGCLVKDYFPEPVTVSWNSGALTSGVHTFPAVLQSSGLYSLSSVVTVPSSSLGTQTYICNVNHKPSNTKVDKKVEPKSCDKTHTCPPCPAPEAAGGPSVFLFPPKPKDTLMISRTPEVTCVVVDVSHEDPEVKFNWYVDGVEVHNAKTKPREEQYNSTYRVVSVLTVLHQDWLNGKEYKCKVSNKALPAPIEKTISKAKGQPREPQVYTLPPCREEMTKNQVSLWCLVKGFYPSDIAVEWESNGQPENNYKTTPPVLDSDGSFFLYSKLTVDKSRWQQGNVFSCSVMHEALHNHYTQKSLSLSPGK
chain: B3 chain
B6: PR002956 (bispecific antibody, human IgG1, lambda, L234A L235A)
light: B1 light
heavy: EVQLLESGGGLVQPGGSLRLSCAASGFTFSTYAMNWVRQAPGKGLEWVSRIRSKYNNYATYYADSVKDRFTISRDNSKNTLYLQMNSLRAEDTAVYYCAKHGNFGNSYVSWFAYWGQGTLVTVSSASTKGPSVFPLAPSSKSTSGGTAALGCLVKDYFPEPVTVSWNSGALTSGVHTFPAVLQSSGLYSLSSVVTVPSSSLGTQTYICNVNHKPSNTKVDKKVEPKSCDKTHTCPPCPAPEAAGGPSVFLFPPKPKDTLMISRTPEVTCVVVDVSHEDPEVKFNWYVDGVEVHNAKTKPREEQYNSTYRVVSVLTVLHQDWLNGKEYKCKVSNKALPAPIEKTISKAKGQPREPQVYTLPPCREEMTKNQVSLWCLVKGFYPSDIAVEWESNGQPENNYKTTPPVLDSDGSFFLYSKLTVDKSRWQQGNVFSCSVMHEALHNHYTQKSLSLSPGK
chain: EVQLVETGGGLIQPGGSLRLSCAASGFTVSDNYMTWVRQAPGKGLEWVSVIFSGGNTYYADSVKGRFTISRDNAKNTLYLQMNSLRAEDTALYYCARRNYDDTRGTDVFDIWGQGTMVTVSSGSEVQLVETGGGLIQPGGSLRLSCAASGFTVSDNYMTWVRQAPGKGLEWVSVIFSGGNTYYADSVKGRFTISRDNAKNTLYLQMNSLRAEDTALYYCARRNYDDTRGTDVFDIWGQGTMVTVSSASEPKSSDKTHTCPPCPAPEAAGGPSVFLFPPKPKDTLMISRTPEVTCVVVDVSHEDPEVKFNWYVDGVEVHNAKTKPREEQYNSTYRVVSVLTVLHQDWLNGKEYKCKVSNKALPAPIEKTISKAKGQPREPQVCTLPPSREEMTKNQVSLSCAVKGFYPSDIAVEWESNGQPENNYKTTPPVLDSDGSFFLVSKLTVDKSRWQQGNVFSCSVMHEALHNHYTQKSLSLSPGK
B7: Anti-4-1BB heavy-chain antibody PR001838_G53A, hIgG1 (antibody, V domains shown)
VH: EVQLLESGGGLVQPGGSLRLSCAASGFTFSNYAMSWFRQPPETGLKWVSSIDASGGDTYYADSVKGRFTISRDNSKNTLYLQMNSLRAEDTAVYYCAKEGSHGTDDSHYDVDVWGQGTTVTVSS
notes: HCAb (heavy chain dimer, no light chain), hIgG1 Fc; also called PR004469
B8: Anti-4-1BB heavy-chain antibody 1016P0042C5, hIgG1 (antibody, V domains shown)
VH: EVQLLESGGGLVQPGGSLRLSCAASGFTFSNYAMTWVRQPPGKGLEWVSSISGSGGSTYYADSVKGRFTISRDNSKNTLYLQMNSLRAEDTAVYYCAKEGTGTTSDYYYNVDVWGQGTTVTVSS
notes: HCAb (heavy chain dimer, no light chain), hIgG1 Fc; also called PR001771
B9: Anti-4-1BB heavy-chain antibody 1016P0020G4, hIgG1 (antibody, V domains shown)
VH: EVQLLESGGGLVQPGGSLRLSCAASGFIFSNFAMTWVRQPPEKGLKWVSSINGSGFNTYYTDSVKGRFTISRDNSRNTLYLQMNRLTAEDTAVYFCAKEGSSETDDHYYNVDVWGQGTTVTVSS
notes: HCAb (heavy chain dimer, no light chain), hIgG1 Fc; also called PR001836
B10: Anti-4-1BB heavy-chain antibody 1016P0037D2, hIgG1 (antibody, V domains shown)
VH: EVQLVESGGGLVQPGGSLRLSCAASGFTFSSYWMHWVRQAPGKGLVWVSRINSDGSSTSYADSVQGRFTISRDNAKNTLYLQMNSLRAEDTAVYYCVRKGSSSYYHYSIEDDWGQGTLVTVSS
notes: HCAb (heavy chain dimer, no light chain), hIgG1 Fc; also called PR001840
B11: Anti-4-1BB heavy-chain antibody 1016P0010B11, hIgG1 (antibody, V domains shown)
VH: EVQLLESGGGLVQLGGSLRLSCAASGFTFSRYAMTWVRQAPEKGLEWVSSISGSGDDTYYGDSVKGRFTISRDNSQNTVYLQMNSLRAEDTAVYFCAKEKAGTTGDYYYNVDVWGQGTTVTVSS
notes: HCAb (heavy chain dimer, no light chain), hIgG1 Fc; also called PR001758

target: T1, human BCMA (human, UniProt Q02223 1-184); experiment: FACS on HEK293T/hBCMA cells, Experiment 2
T1 construct: whole, on cells; also called hBCMA; TNFRSF17
T1 sequence (looked up): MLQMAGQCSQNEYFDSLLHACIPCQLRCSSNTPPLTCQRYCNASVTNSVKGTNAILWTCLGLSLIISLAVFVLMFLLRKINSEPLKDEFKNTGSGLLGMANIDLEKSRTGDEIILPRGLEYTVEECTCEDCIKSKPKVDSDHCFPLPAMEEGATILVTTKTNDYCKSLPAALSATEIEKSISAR

Compared with B1, B2 is 1.8-fold higher in EC50: 0.355 nM for the first, 0.654 nM for the second.

For B3, the EC50 was 0.385 nM.

Going from B1 to B2, the “Maximum MFI” value falls from 15000 to 14700.

Compared with B3, B4 is higher in “Maximum MFI” value: 14000 for the first, 23900 for the second.

First: B5
Second: B6
The “Maximum MFI” value of the first is higher: 25200 for the first, 17600 for the second.

target: T1, human BCMA; experiment: FACS on HEK293T/hBCMA cells, Experiment 3

B1 and B3 are within 1.5-fold of each other in EC50: 0.259 nM for the first, 0.183 nM for the second.

Binder B5 has an EC50 of 0.226 nM.

Compared with B1, B3 is lower in “Maximum MFI” value: 100000 for the first, 93200 for the second.

In the case of B5, the “Maximum MFI” value is reported as 91600.

target: T2, cynomolgus monkey BCMA (cynomolgus monkey, UniProt A0A2K5UD97 1-183); experiment: FACS on HEK293T/cyno BCMA cells
T2 construct: whole, on cells; also called cyno BCMA
T2 sequence (A0A2K5UD97 entry or part of it): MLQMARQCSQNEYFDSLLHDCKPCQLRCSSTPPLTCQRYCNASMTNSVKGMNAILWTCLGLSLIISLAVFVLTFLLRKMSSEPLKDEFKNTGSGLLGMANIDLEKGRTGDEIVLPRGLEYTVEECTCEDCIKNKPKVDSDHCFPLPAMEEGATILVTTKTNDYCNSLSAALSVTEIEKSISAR

First: B2
Second: B4
The “Maximum MFI” value of the first is lower: 11000 for the first, 30600 for the second.

B6 was tested, and the “Maximum MFI” value was 16200.

target: T1, human BCMA; experiment: FACS on NCI-H929 cells

For B1, the EC50 was 1.73 nM and 1.34 nM.
B3 was tested, and the EC50 was 1.53 nM and 2.01 nM.
For B5, the EC50 was 1.34 nM and 2.91 nM.

First: B2
Second: B4
The EC50 of the first is 1.9-fold lower: 2.32 nM for the first, 4.3 nM for the second. The first is the more potent here.

With B6 the EC50 was 3.95 nM.

Compared with B2, B4 is higher in “Maximum MFI” value: 4180 for the first, 4210 for the second.

B6 was tested, and the “Maximum MFI” value was 3570.

target: T3, human 4-1BB (tumor necrosis factor receptor superfamily member 9) (human, UniProt Q07011 24-255); experiment: flow cytometry (FACS) on CHO-K1/hu 4-1BB cells
T3 construct: whole, on cells; also called hu 4-1BB; CD137
T3 sequence (Q07011 24-255): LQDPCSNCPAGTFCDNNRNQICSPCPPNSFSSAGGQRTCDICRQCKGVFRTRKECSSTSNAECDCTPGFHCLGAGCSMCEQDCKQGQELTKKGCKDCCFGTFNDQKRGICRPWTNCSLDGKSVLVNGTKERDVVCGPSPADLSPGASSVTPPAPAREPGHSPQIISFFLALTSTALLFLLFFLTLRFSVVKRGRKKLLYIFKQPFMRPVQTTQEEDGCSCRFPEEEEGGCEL

First: B7
Second: B8
The EC50 of the first is 2.4-fold higher: 1.29 nM for the first, 0.532 nM for the second.

First: B9
Second: B10
The EC50 of the first is 1.5-fold lower: 0.28 nM for the first, 0.43 nM for the second. The first is the more potent here.

With B11 the EC50 was 0.212 nM.

Going from B7 to B8, the “Maximum MFI” value falls from 109000 MFI to 1720 MFI.

First: B9
Second: B10
The “Maximum MFI” value of the first is higher: 1830 MFI for the first, 1790 MFI for the second.

For B11, the “Maximum MFI” value was 1640 MFI.
